What was measured:
peptide-T = target: T1, peptide-T
T1 chain: ASTTTNYT

PAMP-12 = target: T2, PAMP-12
T2 chain: FRKKWNKWALSR

B1: recombinant endo-α-N-acetylgalactosaminidase derived from Bifidobacterium longum JCM1217 (protein)
chain: MKKKKTISAALATALALTCMGSGGGTAFAVPLSDADLQTLASQIQQINDTSDSATASETPSAQADAVEGWTIDSNIAQGGEILEMANGWLHLKSTASNGNAAANPSSSNNWPAVAVWGTDYDFSKAGSFHATIKSPQEGSANRFGFYLGYNDPGSGLFIGYDSGGWFWQTYTGGGSGSWYSGARIAAPSANEEHDIRVSWTDAKVATLTVDGQKAFDVDYSAMTNLSNKLAIKAGSWKELNEVTDVYIKDFPEVVEAAKHAVSGKVVDAGGAAIEGATVRLDKTKVKTGADGTFSFADIEEGEHTLSIAKEGYEDVSQQVTVSGADLAIDPITLNKTVQVASETLKTKKMEVQIKKNFPSVLQYTMTDGKVMYGQSKDVRTVEINGTNIELGDDDVTFKKVSDTEATYTLKVKDEAKKIDAVITVQITVKANQLHLNVTKIKNNLSEGIPEGNGVEENAIQTLSFPNQSLVSVRSSQENAQFTGARMSSNTQKPGDTNFAVTEDTNVTDSDYTYGFISGAGLSAGLWSNSEHDGTYVAAPVRGGSQNTRVYATTQQTGDATSLGLASAPWYYHRTVTDSKGKKYTVAETALPQMAVAIAGDENEDGAVNWQDGAIAYRDIMNNPYKSEEVPELVAWRIAMNFGSQAQNPFLTTLDNVKKVALNTDGLGQSVLLKGYGNEGHDSGHPDYGDIGQRLGGADDMNTMMEEGSKYGARFGVHVNASEMYPEAKAFSEDMVRRNSAGGLSYGWNWLDQGVGIDGIYDLASGSRVSRFADLSKEVGDNMDFIYLDVWGNLTSSGSEDSWETRKMSKMINDNGWRMTTEWGSGNEYDSTFQHWAADLTYGGYTSKGENSEVMRFLRNHQKDSWVGDYPQYGGAANAPLLGGYNMKDFEGWQGRNDYAAYIKNLYTHDVSTKFIQHFKVTRWVNNPLLTADNGNAAAVSDPNTNNGNEQITLKDSNGNVVVVSRGSNDTSSAAYRQRTITFNGVKVASGVVSAGDGSATGDESYLLPWMWDSFTGKLVKDSEQKLYHWNTKGGTTTWTLPDSWKNLSSVKVYQLTDQGKTNEQTVAVSGGKVTLTADAETPYVVYKGEAKQIQVNWSEGMHVVDAGFNGGSNTLTDNWTVSGSGKAEVEGDNNAMLRLTGKVDVSQRLTDLKAGQKYALYVGVDNRSTGDASVTVTSGGKVLATNSTGKSIAKNYIKAYGHNTNSNTENGSSYFQNMYVFFTAPENGDATVTLSHKSTDGAHTYFDDVRIVENQYSGITYEKDGTLKSLTNGFENNAQGIWPFVVSGSEGVEDNRIHLSELHAPFTRAGWDVKKMDDVLDGTWSVKVNGLTQKGTLVYQTIPQNVKFEAGAKYKVSFDYQSGSDDIYAIAVGQGEYSAGSVKLTNLKKALGETGKAEFELTGGVNGDSWFGIYSTATAPDLQGSTGNAQDFGGYKDFVLDNLKIERIESQTRTKAEAQDKVKEIRGKYDSKRAELSDAAWQQYQDTLVKARVLINKNGATAEDFTKAYDILVALDEYMKTAPGNESSDKYDVAADGSDELGGYTVATGSEEPTAGLPSEGPADLAQDGNDSTHWHTSWSENAVGNGTAWYQFNLNEPTTINGLRYLPRSGGMNANGKIKGYKITLTLADGTTKDVVTDAEFSTTTMWQKASFDAVENVTAVRSTVLSSAGQSDSQANKFASAAELRLTTDREVEEETVAPDKTDLNDTIAKANGLKESDYTAESWTALVKAREAAQAVADNDKATAYDVALALTNLESAIAGLEKTGEEPGPGPVEVNKTDLQTAVNKASKLEKADYTTNSWEAFAEALKAAQQVLDNKNATQQDVDTALSALQDAISKLEAATEPKPNPEPGVVDKAALNATINKAAAINLGLYTDDSANALRAALKKAREVSDNSNATQKQVDAAREALEKAIAALVKRPAAKGDGNVVSNTGSDVATIALAGLLLAGAGAAIAYRRNREQL
peptide-T
  transglycosylation activity (HPLC product peak; confirmed by MALDI-TOF-MS): it was demonstrated that the sugar chain was transferred to each peptide because peaks of transglycosylation products ("product" portion in each Figure) were observed
PAMP-12
  transglycosylation activity (HPLC product peak; confirmed by MALDI-TOF-MS): it was demonstrated that the sugar chain was transferred to each peptide because peaks of transglycosylation products ("product" portion in each Figure) were observed
bradykinin
  transglycosylation activity (HPLC product peak; confirmed by MALDI-TOF-MS): it was demonstrated that the sugar chain was transferred to each peptide because peaks of transglycosylation products ("product" portion in each Figure) were observed
